The series “SEC” concerns the molecule itself. The series can be described thus: SEC. (Size exclusion chromatography separates by hydrodynamic size, large species first.)
The series “native MS” deals with the molecule itself. The series can be described thus: native MS.

B1: MvoDUF2193 (natural protein, Methanococcus voltae strain A3, UniProt D7DSA4 1-499, looked up)
chain: MKELYEKMINEAMAAQWADVEVIKAKRGTKYKLTDGKPYVDAVQKMEAIGDQCSEVFDLHKNSVKIHYDTLCDLTDTVRPEDDPFVEHYQTPAILEILYNEDPKFREAVEKFIDSVEKNSALIGKEVVRRYGGFYGPTCVVDFALIPGSTSNIVNQILRKTDISEHYKQAILASKSWGMNTSYGIGDKFAHAVEDGKTLEEAIDEEIKTIKMIYDTPIQAQAKLMEEAGHTSFDVLKYMQDYKKKMESTVKKAIDADVNYANIVTVPAYCVGDISHHIAQSTYNMCKDDVIMAIIEATSKVMDNTLRNNIDKYKSEFDVLSLATGSTAAAVEYILELDGFNAPTVVQLLTRRFHNYVQLYPKRGAAAELHNCDFMDMIYRGWKTLDKARRMKNGSGTKLMPMVNDMPVDLDPIAENEVIMNPQRYAYPACAITVRFSSLMRLSDYPCLLTSEPVTATMMTNAIALHKNNPGAPARVCKKCASSCLVDFRHEYCQWRESV
As a reminder, the stoichiometry N is a count of units in the complex or per binding partner. For the protein B1, the “stoichiometry N” value in the series “SEC” came out at 4; in “native MS” it was 2.
